Experiments:
cbz-FAF[125I]Y-NH2 = test system: T1, cbz-FAF[125I]Y-NH2
T1 sequence: FAFY

[1] = target: rat CNS myelin (spinal cord myelin membrane fraction); experiment: cell-based or functional assay
[2] = target: 250 kD CNS myelin associated inhibitory protein from rat CNS myelin (rat); experiment: cell-based or functional assay
[3] = target: 35 kD CNS myelin associated inhibitory protein from rat CNS myelin (rat); experiment: cell-based or functional assay
[4] = target: CNS myelin protein liposomes (total rat CNS myelin protein reconstituted in lipid vesicles); experiment: cell-based or functional assay
[5] = target: 250 kD CNS myelin associated inhibitory protein from rat CNS myelin (rat); experiment: solid phase radioimmunoassay on liposomes with gel-extracted protein, 125I goat anti-mouse, background subtracted
[6] = target: 35 kD CNS myelin associated inhibitory protein from rat CNS myelin (rat); experiment: as above
[7] = target: rat CNS myelin (spinal cord myelin membrane fraction); experiment: solid phase radioimmunoassay, antigen-coated wells, hybridoma supernatant, 125I goat anti-mouse, background subtracted
[8] = target: rat CNS myelin, trypsin-treated; experiment: as above
[9] = target: rat PNS myelin (sciatic nerve myelin membrane fraction); experiment: as above

Sequence of tissue-type plasminogen activator (tPA) (P00750 36-562): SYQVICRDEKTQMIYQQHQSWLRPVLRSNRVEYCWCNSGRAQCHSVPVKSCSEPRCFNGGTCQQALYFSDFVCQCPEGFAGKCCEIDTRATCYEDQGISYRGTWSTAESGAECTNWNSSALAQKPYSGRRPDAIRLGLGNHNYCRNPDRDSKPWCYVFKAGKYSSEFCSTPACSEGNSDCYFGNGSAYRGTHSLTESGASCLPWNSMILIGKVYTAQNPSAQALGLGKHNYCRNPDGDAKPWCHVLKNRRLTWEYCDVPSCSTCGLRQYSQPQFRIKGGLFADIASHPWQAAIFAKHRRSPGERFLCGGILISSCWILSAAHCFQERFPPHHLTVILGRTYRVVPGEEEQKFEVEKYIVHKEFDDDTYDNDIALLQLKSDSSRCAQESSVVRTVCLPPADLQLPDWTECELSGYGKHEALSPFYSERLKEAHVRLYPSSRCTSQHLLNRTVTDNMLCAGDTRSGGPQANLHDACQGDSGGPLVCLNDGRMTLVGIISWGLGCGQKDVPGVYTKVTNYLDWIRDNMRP

Substance: C6 plasma membrane associated metalloendoprotease (rat C6 glioblastoma cells)
- Amount necessary to degrade 50% of substrate in 30 min [µg], total C6 PM protein (cbz-FAF[125I]Y-NH2): 1.5 µg
- cbz-FAF[125I]Y-NH2 degradation by the plasma membrane fraction (5 µg) (cbz-FAF[125I]Y-NH2): 2.7 nmol/min

Substance: C6 plasma membrane associated metalloendoprotease (rat C6 glioblastoma cells) (enzyme)
- 3H-Thymidine Incorporation (%) of 3T3 cells on CNS myelin preincubated with C6 PM (untreated CNS myelin: 30) [1]: 83%
- 3T3 Cell Spreading (%) on CNS myelin preincubated with C6 PM (untreated CNS myelin: 15) [1]: 52%

Substance: cathepsin D
- Amount necessary to degrade 50% of substrate in 30 min [µg], pH 4.0 (cbz-FAF[125I]Y-NH2): 0.005 µg
- Amount necessary to degrade 50% of substrate in 30 min [µg], pH 7.4 (cbz-FAF[125I]Y-NH2): > 100 µg

Substance: collagenase
- Amount necessary to degrade 50% of substrate in 30 min (cbz-FAF[125I]Y-NH2): 3 µg

Substance: monoclonal antibody IN-1
- 3T3 Spreading (µm^2) on 250 kD liposomes made from IN-1-precipitated protein, Protocol 2 [2]: 245 µm^2
- 3T3 Spreading (µm^2) on 35 kD liposomes made from IN-1-precipitated protein, Protocol 2 [3]: 270 µm^2
- 3T3 spreading value on CNS lipos. preadsorbed with IN-1 (no antibody: 1.11) [4]: 2030 µm^2
- % inhibition of 3T3 spreading on CNS lipos. preadsorbed with IN-1 (no antibody: 45) [4]: 10%
- % inhibition of C6 spreading on CNS lipos. preadsorbed with IN-1, 0.3 mM 1,10-phenanthroline (no antibody: 46) [4]: 11%
- C6 spreading value on CNS lipos. preadsorbed with IN-1, 0.3 mM 1,10-phenanthroline (no antibody: 1.35) [4]: 2250 µm^2
- 3T3 Spreading (µm^2) on liposomes of IN-1-immunoprecipitated myelin protein, Protocol 1 [1]: 218 µm^2
- 3T3 Spreading (µm^2) on liposomes of IN-1-immunoprecipitated myelin protein, Protocol 2 [1]: 215 µm^2
- Amount of Antibody Bound (cpm of 125I-Labeled Goat Anti-Mouse) [5]: 250 cpm
- Amount of Antibody Bound (cpm of 125I-Labeled Goat Anti-Mouse) [6]: 350 cpm
- Amount of Antibody Bound (cpm of 125I-Labeled Goat Anti-Mouse) [7]: 550 cpm
- Amount of Antibody Bound (cpm of 125I-Labeled Goat Anti-Mouse) [8]: 25 cpm
- Amount of Antibody Bound (cpm of 125I-Labeled Goat Anti-Mouse) [9]: 80 cpm

Substance: tissue-type plasminogen activator (tPA)
- Amount necessary to degrade 50% of substrate in 30 min (cbz-FAF[125I]Y-NH2): > 100 µg

Substance: trypsin
- Amount necessary to degrade 50% of substrate in 30 min (cbz-FAF[125I]Y-NH2): 0.3 µg

Substance: urokinase (uPA)
- Amount necessary to degrade 50% of substrate in 30 min (cbz-FAF[125I]Y-NH2): > 100 µg

Reference: patent publication US6960559
